Laboratory results published in patent publication US11472839B2, “Peptide capable of forming a gel for use in tissue engineering and bioprinting” (KING ABDULLAH UNIVERSITY OF SCIENCE AND TECHNOLOGY, priority 2017, dated 2022).
Non-standard residues stand in square brackets, D forms with d. Cha = N[C@@H](CC1CCCCC1)C(=O)O

Tests used:
[1] = Peptide hydrogel preparation / self-assembly (gelation); format: physicochemical; conditions: FIG. 1A
Method: Lyophilized peptides were dissolved in milliQ water and vortexed to get a homogenous solution. Subsequently, 10× phosphate buffered saline at the final concentration of 1× was added to the peptide solution and vortexed shortly. Gelation occurred within few seconds to minutes or hours depending on the peptide sequence.

[2] = Transmission electron microscopy (TEM) of peptide nanofibers; format: physicochemical; conditions: TEM images (13 for IVFK, 10 for IVZK), distribution curve; IVZK shows three types of average diameter, 8.6 nm most abundant, 4.0 nm single monomer fiber
Method: The TEM studies were carried out on two different instruments; Tecnai G2 Spirit Twin with accelerating voltage of 120 kV and FEI Titan G2 80-300 CT with 300 kV emission gun. The Cryo TEM imaging was performed in low dose mode by using FEI's Titan Krios operating at 300 kV. The TEM samples for peptide nanofiber were prepared from diluted peptide hydrogel in water. One drop of this solution was then introduced on a carbon coated copper grid that has been treated with glow discharge plasma before being used. The drop was then kept for 10 minutes before being blotted using filter paper. To get a better contrast, the grid was stained using 2% uranyl acetate for 1 minute and then was dried for at least one day before imaging. The diameter of IVFK and IVZK peptide nanofibers were measured using an image-analysis software ImageJ from 13 and 10 TEM images, respectively. A size distribution histogram for each peptide nanofiber was created in Origin to calculate the average diameter of both peptides. See e.g. FIG. 1B.

| Substance | self-assembly into hydrogel [1] | average fiber diameter [2] [nm] |
| --- | --- | --- |
| Ac-IVOK-NH2 (Ac-IV[Cha]K-NH2; SMILES CC[C@H](C)[C@H](NC(C)=O)C(=O)N[C@H](C(=O)N[C@@H](CC1CCCCC1)C(=O)N[C@@H](CCCCN)C(N)=O)C(C)C) [IVZK, ultrashort self-assembling peptide; Z undefined, probably cyclohexylalanine] | self-assemble into macromolecular nanofibrous hydrogels | – |
| Ac-IVFK-NH2 | self-assemble into macromolecular nanofibrous hydrogels | 10.3 |
